The Human Domainome abundance scans (Beltran et al. 2025)
± gives the uncertainty stated by the source.

B1: POU domain, class 3, transcription factor 1, residues 247 to 324; numbered along this chain, Q03052 (parent)
chain: EDAPSSDDLEQFAKQFKQRRIKLGFTQADVGLALGTLYGNVFSQTTICRFEALQLSFKNMCKLKPLLNKWLEETDSSS

Variants of: B1
Test: abundance fitness (aPCA) (normalised: wild type 0, dead -1); higher = more abundant; growth selection in yeast, the domain comes from the species named
Conditions: Homo sapiens

Abundance fitness: each site, then its substitutions
E73: F -0.105 ± 0.16, L -0.018 ± 0.047, R -0.081 ± 0.038, Y -0.197 ± 0.15, P -0.378 ± 0.12, V -0.128 ± 0.052, H -0.03 ± 0.093, T -0.034 ± 0.073, Q 0.041 ± 0.077, I -0.351 ± 0.22, D 0.267 ± 0.082, N -0.154 ± 0.12, S -0.126 ± 0.061, W -0.137 ± 0.054, G -0.196 ± 0.042, A -0.038 ± 0.055, M -0.012 ± 0.063
D75: T -0.274 ± 0.15, S 0.138 ± 0.072, M -0.4 ± 0.18, L -0.214 ± 0.08, P 0.178 ± 0.15, A -0.015 ± 0.074, E 0.109 ± 0.078, V -0.115 ± 0.069, K -0.207 ± 0.15, Q 0.165 ± 0.12, I -0.038 ± 0.15, W -0.262 ± 0.11, R -0.077 ± 0.061, Y 0.151 ± 0.29, C 0.089 ± 0.13, H 0.395 ± 0.32
S78: Q -0.158 ± 0.17, G 0.153 ± 0.073, N 0.256 ± 0.28, T 0.087 ± 0.11, W -0.189 ± 0.14, E -0.045 ± 0.12, V 0.021 ± 0.079, A -0.023 ± 0.096, Y -0.008 ± 0.19, R -0.032 ± 0.082, K 0.164 ± 0.13, P -0.019 ± 0.1, M -0.256 ± 0.23, L 0.091 ± 0.11, C 0.08 ± 0.16, F -0.199 ± 0.17, D 0.212 ± 0.16
E72: Q -0.143 ± 0.073, L -0.024 ± 0.044, H -0.018 ± 0.1, G -0.368 ± 0.052, Y -0.19 ± 0.12, R -0.079 ± 0.04, V -0.1 ± 0.044, A -0.193 ± 0.05, D 0.004 ± 0.065, T -0.148 ± 0.071, K -0.049 ± 0.076, M 0.037 ± 0.057, S -0.212 ± 0.054, F -0.493 ± 0.14, N -0.152 ± 0.13, C -0.247 ± 0.091, I -0.245 ± 0.13, P -0.736 ± 0.14
L71: Q -0.504 ± 0.16, R -0.569 ± 0.081, N -0.341 ± 0.18, H -0.402 ± 0.35, M 0.03 ± 0.082, V -0.356 ± 0.069, K -0.677 ± 0.21, S -0.706 ± 0.13, T -0.988 ± 0.23, I -0.019 ± 0.11, W -0.584 ± 0.098, P -1.1 ± 0.27
S77: I -0.113 ± 0.12, V 0.045 ± 0.039, L -0.098 ± 0.045
